B1: Catenin alpha-3 (Homo sapiens), Q9UI47-1 (parent)
chain: MSAETPITLNIDPQDLQVQTFTVEKLLEPLIIQVTTLVNCPQNPSSRKKGRSKRASVLLASVEEATWNLLDKGEKIAQEATVLKDELTASLEEVRKESEALKVSAERFTDDPCFLPKREAVVQAARALLAAVTRLLILADMIDVMCLLQHVSAFQRTFESLKNVANKSDLQKTYQKLGKELENLDYLAFKRQQDLKSPNQRDEIAGARASLKENSPLLHSICSACLEHSDVASLKASKDTVCEEIQNALNVISNASQGIQNMTTPPEPQAATLGSALDELENLIVLNPLTVTEEEIRPSLEKRLEAIISGAALLADSSCTRDLHRERIIAECNAIRQALQDLLSEYMNNAGKKERSNTLNIALDNMCKKTRDLRRQLRKAIIDHVSDSFLDTTVPLLVLIEAAKNGREKEIKEYAAIFHEHTSRLVEVANLACSMSTNEDGIKIVKIAANHLETLCPQIINAALALAARPKSQAVKNTMEMYKRTWENHIHVLTEAVDDITSIDDFLAVSESHILEDVNKCIIALRDQDADNLDRAAGAIRGRAARVAHIVTGEMDSYEPGAYTEGVMRNVNFLTSTVIPEFVTQVNVALEALSKSSLNVLDDNQFVDISKKIYDTIHDIRCSVMMIRTPEELEDVSDLEEEHEVRSHTSIQTEGKTDRAKMTQLPEAEKEKIAEQVADFKKVKSKLDAEIEIWDDTSNDIIVLAKNMCMIMMEMTDFTRGKGPLKHTTDVIYAAKMISESGSRMDVLARQIANQCPDPSCKQDLLAYLEQIKFYSHQLKICSQVKAEIQNLGGELIMSALDSVTSLIQAAKNLMNAVVQTVKMSYIASTKIIRIQSPAGPRHPVVMWRMKAPAKKPLIKREKPEETCAAVRRGSAKKKIHPLQVMSEFRGRQIY
partner: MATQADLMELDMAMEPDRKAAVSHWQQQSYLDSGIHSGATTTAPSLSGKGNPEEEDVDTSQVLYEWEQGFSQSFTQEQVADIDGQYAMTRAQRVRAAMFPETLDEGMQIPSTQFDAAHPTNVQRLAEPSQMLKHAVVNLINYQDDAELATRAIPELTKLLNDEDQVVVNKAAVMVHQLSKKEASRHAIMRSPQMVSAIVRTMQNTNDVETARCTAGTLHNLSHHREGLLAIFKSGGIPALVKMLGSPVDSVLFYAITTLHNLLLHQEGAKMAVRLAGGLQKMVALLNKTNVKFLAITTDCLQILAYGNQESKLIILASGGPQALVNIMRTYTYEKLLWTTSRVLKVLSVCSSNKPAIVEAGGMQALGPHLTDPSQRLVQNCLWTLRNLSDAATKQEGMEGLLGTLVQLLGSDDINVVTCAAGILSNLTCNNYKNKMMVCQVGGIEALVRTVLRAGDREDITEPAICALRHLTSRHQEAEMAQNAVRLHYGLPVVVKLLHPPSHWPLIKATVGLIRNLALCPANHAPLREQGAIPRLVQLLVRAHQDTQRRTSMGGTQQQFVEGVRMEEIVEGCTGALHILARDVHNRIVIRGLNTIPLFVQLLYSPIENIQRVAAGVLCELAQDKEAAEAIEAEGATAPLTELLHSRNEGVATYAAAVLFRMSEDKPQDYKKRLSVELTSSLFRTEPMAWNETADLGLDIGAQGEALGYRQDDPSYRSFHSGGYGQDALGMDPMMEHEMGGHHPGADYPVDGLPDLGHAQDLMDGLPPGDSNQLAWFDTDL
B2: Catenin alpha-3 (Homo sapiens), Q9UI47-1 (parent)
chain: B1 chain
partner: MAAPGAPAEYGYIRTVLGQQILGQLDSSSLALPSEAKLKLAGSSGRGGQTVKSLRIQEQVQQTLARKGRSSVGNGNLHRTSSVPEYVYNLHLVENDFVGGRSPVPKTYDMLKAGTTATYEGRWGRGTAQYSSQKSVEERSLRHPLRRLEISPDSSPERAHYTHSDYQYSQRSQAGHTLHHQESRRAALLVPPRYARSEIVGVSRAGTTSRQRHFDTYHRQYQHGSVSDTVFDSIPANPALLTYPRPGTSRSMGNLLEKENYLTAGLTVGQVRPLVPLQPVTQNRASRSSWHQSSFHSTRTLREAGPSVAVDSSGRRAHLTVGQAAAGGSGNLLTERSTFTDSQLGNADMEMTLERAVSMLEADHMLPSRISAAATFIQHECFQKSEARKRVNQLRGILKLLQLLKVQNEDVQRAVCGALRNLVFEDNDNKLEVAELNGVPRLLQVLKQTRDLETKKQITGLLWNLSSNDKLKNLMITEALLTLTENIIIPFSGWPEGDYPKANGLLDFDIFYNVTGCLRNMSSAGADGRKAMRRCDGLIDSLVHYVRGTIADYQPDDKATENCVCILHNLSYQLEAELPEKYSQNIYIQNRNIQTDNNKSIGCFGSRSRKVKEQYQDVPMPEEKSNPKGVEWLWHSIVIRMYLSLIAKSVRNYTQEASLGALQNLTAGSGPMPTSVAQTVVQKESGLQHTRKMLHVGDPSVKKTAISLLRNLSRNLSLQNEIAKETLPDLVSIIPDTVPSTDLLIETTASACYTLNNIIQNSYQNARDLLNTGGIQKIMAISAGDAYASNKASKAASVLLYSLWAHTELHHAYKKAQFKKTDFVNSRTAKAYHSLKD
B3: Catenin alpha-3 (Homo sapiens), Q9UI47-1 (parent)
chain: B1 chain
B4: Catenin alpha-3 (Homo sapiens), Q9UI47-1 (parent)
chain: B1 chain
partner: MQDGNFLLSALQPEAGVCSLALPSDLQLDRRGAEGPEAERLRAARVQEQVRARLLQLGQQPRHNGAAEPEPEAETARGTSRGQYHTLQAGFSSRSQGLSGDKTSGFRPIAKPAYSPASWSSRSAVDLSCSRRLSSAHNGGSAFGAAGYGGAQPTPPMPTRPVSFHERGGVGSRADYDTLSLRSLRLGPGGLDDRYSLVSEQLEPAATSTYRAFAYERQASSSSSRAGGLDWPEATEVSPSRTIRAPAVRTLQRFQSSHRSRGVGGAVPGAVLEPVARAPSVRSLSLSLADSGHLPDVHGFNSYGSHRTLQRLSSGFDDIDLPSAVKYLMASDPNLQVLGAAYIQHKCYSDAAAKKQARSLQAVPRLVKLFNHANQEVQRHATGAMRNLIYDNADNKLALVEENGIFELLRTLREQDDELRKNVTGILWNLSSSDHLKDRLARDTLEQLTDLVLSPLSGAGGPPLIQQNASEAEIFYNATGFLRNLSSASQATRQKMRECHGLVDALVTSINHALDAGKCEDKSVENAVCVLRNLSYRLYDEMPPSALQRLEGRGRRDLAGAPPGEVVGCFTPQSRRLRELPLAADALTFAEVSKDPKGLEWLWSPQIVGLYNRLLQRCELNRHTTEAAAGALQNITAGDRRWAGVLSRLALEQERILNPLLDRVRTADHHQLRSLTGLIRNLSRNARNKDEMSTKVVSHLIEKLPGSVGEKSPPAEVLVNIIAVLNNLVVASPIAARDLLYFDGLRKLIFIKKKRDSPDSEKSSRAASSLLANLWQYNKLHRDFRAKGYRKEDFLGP
B5: Catenin alpha-3 (Homo sapiens), Q9UI47-1 (parent)
chain: B1 chain
partner: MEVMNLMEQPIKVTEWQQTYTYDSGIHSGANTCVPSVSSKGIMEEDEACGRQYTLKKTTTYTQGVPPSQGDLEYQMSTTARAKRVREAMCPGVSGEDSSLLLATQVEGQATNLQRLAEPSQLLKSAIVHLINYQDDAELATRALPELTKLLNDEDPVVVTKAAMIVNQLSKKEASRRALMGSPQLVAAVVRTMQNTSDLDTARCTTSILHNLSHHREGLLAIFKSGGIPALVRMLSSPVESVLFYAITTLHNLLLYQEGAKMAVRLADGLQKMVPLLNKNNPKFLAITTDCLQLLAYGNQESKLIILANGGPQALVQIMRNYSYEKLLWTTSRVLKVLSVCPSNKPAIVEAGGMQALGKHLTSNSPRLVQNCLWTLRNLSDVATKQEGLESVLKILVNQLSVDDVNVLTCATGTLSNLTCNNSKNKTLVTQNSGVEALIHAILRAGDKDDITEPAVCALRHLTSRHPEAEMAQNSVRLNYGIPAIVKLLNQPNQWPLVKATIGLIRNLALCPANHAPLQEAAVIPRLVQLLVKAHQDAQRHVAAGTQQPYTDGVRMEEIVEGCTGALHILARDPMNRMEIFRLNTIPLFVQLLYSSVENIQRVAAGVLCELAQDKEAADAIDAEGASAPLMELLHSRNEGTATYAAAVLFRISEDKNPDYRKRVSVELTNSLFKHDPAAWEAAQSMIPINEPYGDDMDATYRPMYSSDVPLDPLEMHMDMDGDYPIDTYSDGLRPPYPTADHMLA

Variants of: B1
Conditions: with ctnb1_rat Ctnnb1, Q9WU82

| Variant | effect of a mutation on the interaction |
| --- | --- |
| V94D | with no effect |

Variants of: B2
Conditions: with PKP2, Q99959-2

| Variant | effect of a mutation on the interaction |
| --- | --- |
| V94D | with no effect |

Variants of: B3
Conditions: with ctnb1_human CTNNB1, P35222

| Variant | effect of a mutation on the interaction |
| --- | --- |
| V94D | disrupting interaction strength |

Variants of: B3
Conditions: with ctnb1_human CTNNB1, P35222
Remark: another data set of the same source

| Variant | effect of a mutation on the interaction |
| --- | --- |
| V94D | decreasing interaction strength |

Variants of: B3
Conditions: with ctnb1_mouse Ctnnb1, Q02248

| Variant | effect of a mutation on the interaction |
| --- | --- |
| V94D | disrupting interaction strength |

Variants of: B4
Conditions: with pkp3_human PKP3, Q9Y446

| Variant | effect of a mutation on the interaction |
| --- | --- |
| V94D | with no effect |

Variants of: B5
Conditions: with plak_human JUP

| Variant | effect of a mutation on the interaction |
| --- | --- |
| V94D | disrupting interaction strength |

Reference: IntAct's records for PubMed 23136403
